In patent publication US20250122508A1 (K2B THERAPEUTICS, published 2025):

B1: mouse CD47 on the surface of mouse red blood cells and CT26.CL25 cells (receptor, UniProt Q61735 19-303, looked up)
chain: QLLFSNVNSIEFTSCNETVVIPCIVRNVEAQSTEEMFVKWKLNKSYIFIYDGNKNSTTTDQNFTSAKISVSDLINGIASLKMDKRDAMVGNYTCEVTELSREGKTVIELKNRTVSWFSPNEKILIVIFPILAILLFWGKFGILTLKYKSSHTNKRIILLLVAGLVLTVIVVVGAILLIPGEKPVKNASGLGLIVISTGILILLQYNVFMTAFGMTSFTIAILITQVLGYVLALVGLCLCIMACEPVHGPLLISGLGIIALAELLGLVYMKFVASNQRTIQPPRNR
notes: whole, on cells; also called CD47 present on the surface of the CT26.CL25 cells

How the values were obtained:
[1] = target: T1, Murine TSP-1 (7859-TH, R&D Systems) labeled with Cy5.5 (murine, UniProt P35441 19-1170, Cy5.5 label (site not stated)); assay: flow cytometry of CT26.CL25 cells after incubation with mouse RBC loaded with 5 µg labeled murine TSP-1
T1 construct: also called Cy5.5-labeled murine thrombospondin-1; Cy5.5 labeled TSP-1
T1 sequence (P35441 19-1170 limits assumed): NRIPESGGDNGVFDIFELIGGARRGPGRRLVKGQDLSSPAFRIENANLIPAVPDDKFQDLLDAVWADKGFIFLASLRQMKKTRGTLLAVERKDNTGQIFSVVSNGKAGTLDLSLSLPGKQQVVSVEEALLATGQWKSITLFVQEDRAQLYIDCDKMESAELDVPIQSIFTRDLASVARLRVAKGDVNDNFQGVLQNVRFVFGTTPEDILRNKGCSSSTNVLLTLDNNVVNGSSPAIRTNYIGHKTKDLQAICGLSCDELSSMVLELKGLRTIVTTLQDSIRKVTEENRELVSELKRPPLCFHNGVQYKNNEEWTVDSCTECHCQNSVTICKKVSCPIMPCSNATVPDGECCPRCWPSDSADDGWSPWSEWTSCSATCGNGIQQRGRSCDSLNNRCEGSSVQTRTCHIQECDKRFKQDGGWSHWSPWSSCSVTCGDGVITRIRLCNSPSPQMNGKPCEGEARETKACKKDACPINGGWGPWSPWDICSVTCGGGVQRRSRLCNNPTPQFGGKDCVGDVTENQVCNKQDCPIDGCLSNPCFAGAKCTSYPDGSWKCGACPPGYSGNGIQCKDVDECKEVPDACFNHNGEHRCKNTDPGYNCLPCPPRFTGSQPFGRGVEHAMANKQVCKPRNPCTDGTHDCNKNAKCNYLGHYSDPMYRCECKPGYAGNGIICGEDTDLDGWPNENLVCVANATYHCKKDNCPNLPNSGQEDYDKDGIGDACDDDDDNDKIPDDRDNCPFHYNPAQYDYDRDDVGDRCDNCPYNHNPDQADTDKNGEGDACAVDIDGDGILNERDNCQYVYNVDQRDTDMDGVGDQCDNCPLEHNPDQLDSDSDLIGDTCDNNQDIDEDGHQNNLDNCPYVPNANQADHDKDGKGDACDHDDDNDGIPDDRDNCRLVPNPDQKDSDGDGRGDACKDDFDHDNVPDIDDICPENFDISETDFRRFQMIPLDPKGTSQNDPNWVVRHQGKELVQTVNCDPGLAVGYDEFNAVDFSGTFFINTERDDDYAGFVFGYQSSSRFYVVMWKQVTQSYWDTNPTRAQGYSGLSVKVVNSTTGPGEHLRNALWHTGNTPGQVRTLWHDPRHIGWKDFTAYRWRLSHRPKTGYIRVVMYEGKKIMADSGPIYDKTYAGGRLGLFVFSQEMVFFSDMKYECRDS
Experimental: (§1) Each cell line, grown independently in a cell culture dish, was detached from the dish with trypsin-EDTA. The cells from each dish were then washed with DPBS, counted, and diluted to 10⁵ cells/100 μl PBS. 4 μl of the FAM-vSIRPα-siRNA/RBC resuspension (totaling 10³ RBC and 100 pmol of the vSIRPα-siRNA) was mixed, independently, with each 100 μl dilution of CT26.CL25 cells and CaCO2 cells. Each mixture was incubated for 30 minutes at room temperature (20-25° C.).
Murine TSP-1 (7859-TH, R&D Systems) labeled with Cy5.5 was tested for its ability to be transferred from RBC to CD47 present on the surface of CT26.CL25 cells. Experiments were carried out as in Example 2, except that 5 μg of Cy5.5 labeled TSP-1, rather than 500 pmol of conjugate, was incubated with the RBC.

[2] = target: B1; assay: flow cytometry of CT26.CL25 cells after incubation with mouse RBC loaded with 200 pmol labeled vSIRPα
Experimental: as §1
vSIRPα labeled with Cy5.5 was tested for its ability to be transferred from RBC to CD47 present on the surface of CT26.CL25 cells. Experiments were carried out as in Example 2, except that 200 pmol of the labeled vSIRPα, rather than 500 pmol of conjugate, was incubated with the RBC.

Binder	binding result [1]	binding result [2]
B1	binds	
vSIRPα labeled with Cy5.5 (receptor, Cy5.5 label (site not stated), also called Cy5.5-labeled vSIRPα) EEELQIIQPDKSVLVAAGETATLRCTITSLFPVGPIQWFRGAGPGRVLIYNQRQGPFPRVTTVSDTTKRNNMDFSIRIGNITPADAGTYYCIKFRKGSPDDVEFKSGAGTELSVRAKP		binds
